Changes are numbered by the printed parent chain. Names may count otherwise.
Tests used:
[1] = substrate: O=c1[nH]c(=O)c2[nH]c(=O)[nH]c2[nH]1; assay: Michaelis-Menten kinetics, MedU_1B7; assay type: biochemical, Arthrobacter globiformis; conditions: other: role: substrate; non-PEGylated; Table 8B; pH 10.5
Protocol: (§1) Select Arthrobacter globiformis uricase variants MedU_1B7, MedU_5B8, MedU_1C2, MedU_5C9, MedU_5E6, MedU_5E9, and MedU_IF1 were subject to further characterization by comparing their expression yields, Michaelis-Menten kinetics parameters, and thermostability measured by temperatures at which 50% of normal activity was lost determined by heat stress activity assay, with those of the wild type Arthrobacter globiformis uricase. The expression yields were determined as described above in the “Methods” section. The Michaelis-Menten kinetics parameters kcat and KM, and temperatures at which 50% of normal activity was lost (i.e., 50% thermal inactivation temperatures, referred to as TI50 (° C.)) measured by heat stress activity assay were likewise determined using the methods described in Example 1.

[2] = substrate: O=c1[nH]c(=O)c2[nH]c(=O)[nH]c2[nH]1; assay: Michaelis-Menten kinetics, MedU_1C2; assay type: biochemical, Arthrobacter globiformis; conditions: other: role: substrate; non-PEGylated; Table 8B; pH 10.5
Protocol: as §1

B1: Arthrobacter globiformis uricase variant MedU_1B7, A35D/A83G/A145T/A148S/A204G/A213G/I243V/K244S, SEQ ID NO: 77 (Arthrobacter globiformis; … (protein)
chain: MTATAETSTGTKVVLGQNQYGKAEVRLVKVTRNTDRHEIQDLNVTSQLSGDFEAAHTAGDNAHVVATDTQKNTVYAFARDGFGTTEEFLLRLGKHFTEGFDWVTGGRWAAQQFFWDRINDHDHAFSRNKSEVRTAVLEISGSEQTIVSGIEGLTVLKSTGSEFHGFPRDKYTTLQETTDRILATDVSARWRYNTVEVDFDAVYGSVRGLLLKGFAETHSLALQQTMYEMGRAVIETHPEIDEVSMSLPNKHHFLVDLQPFGQDNPNEVFYAADRPYGLIEATIQREGSRAD
notes: R49S backbone, 291 aa; pET-26b(+), C-terminal His6, E. coli; non-PEGylated
B1 showed a Km [1] of 440 ± 90 µM and a kcat [1] of 3.8 ± 0.2 s⁻¹.

B2: Arthrobacter globiformis uricase variant MedU_1C2, A145T/V195E/I243V/K244S/K250N/Y270H, SEQ ID NO: 80 (Arthrobacter globiformis; … (protein)
chain: B1 chain with D35A, G83A, S148A, V195E, G204A, G213A, K250N, Y270H
notes: as for B1
For B2, the Km [2] was 500 ± 90 µM and the kcat [2] was 3.4 ± 0.2 s⁻¹.
